Tests used:
[1] = biological target: human complement component C1q (human) (UniProt P02745); test: ProteOn XPR36 SPR, antibody immobilised, C1q as analyte, equilibrium model
[2] = biological target: human Fc gamma receptors (FcγR) (human); test: ProteOn XPR36 SPR, His-tagged receptors captured, antibody as analyte, 25 °C, equilibrium model

human complement component C1q (human), sequence (P02745 23-245 limits assumed, chain 1 of 3): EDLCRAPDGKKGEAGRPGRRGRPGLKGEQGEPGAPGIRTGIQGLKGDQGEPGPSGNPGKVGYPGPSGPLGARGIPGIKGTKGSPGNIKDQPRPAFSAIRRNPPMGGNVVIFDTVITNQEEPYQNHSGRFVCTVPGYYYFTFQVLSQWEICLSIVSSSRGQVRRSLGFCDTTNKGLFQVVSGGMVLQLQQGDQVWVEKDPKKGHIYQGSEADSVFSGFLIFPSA
human complement component C1q (human), sequence (P02746 28-253 limits assumed, chain 2 of 3, further chain): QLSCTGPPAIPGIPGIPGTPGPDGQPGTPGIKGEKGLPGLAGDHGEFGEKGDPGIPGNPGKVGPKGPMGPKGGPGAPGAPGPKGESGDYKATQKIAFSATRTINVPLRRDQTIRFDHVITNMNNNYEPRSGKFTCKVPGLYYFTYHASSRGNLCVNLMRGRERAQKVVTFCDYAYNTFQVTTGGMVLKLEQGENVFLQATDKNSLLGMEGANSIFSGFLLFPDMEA
human complement component C1q (human), sequence (P02747 29-245 limits assumed, chain 3 of 3, further chain): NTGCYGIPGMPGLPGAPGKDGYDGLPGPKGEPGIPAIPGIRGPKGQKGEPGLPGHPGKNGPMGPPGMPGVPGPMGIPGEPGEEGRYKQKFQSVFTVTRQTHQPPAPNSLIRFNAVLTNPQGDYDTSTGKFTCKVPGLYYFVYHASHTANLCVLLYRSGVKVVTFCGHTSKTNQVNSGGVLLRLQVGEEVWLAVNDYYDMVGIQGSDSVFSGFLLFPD

Substance	Kd [1]	fold lower affinity than the human IgG1 wild type control [2]
IgG1 wildtype isotype control (antibody)	465 nM	–
YTE containing control antibody	–	1.5 fold
